Test results published in PMC8027947, “Nucleoside Metabolism Is Induced in Common Bean During Early Seedling Development” (Frontiers in Plant Science, 2021).

Legend:
[1] = substrate: OC[C@H]1O[C@@H](n2cnc3c(O)ncnc32)[C@H](O)[C@@H]1O; assay: HPLC of nucleoside hydrolysis, Michaelis-Menten; assay type: biochemical, Phaseolus vulgaris; conditions: 50 mM Tris-HCl pH 7.5, 1 mM DTT, 40 °C, apparent Km
Text: (§1) HPLC of nucleoside hydrolysis, Michaelis-Menten on PvNSH2

[2] = substrate: O=c1[nH]c(=O)c2ncn([C@@H]3O[C@H](CO)[C@@H](O)[C@H]3O)c2[nH]1; assay: HPLC of nucleoside hydrolysis, Michaelis-Menten; assay type: biochemical, Phaseolus vulgaris; conditions: 50 mM Tris-HCl pH 7.5, 1 mM DTT, 40 °C, apparent Km
Text: as §1

B1: PvNSH2 (Phaseolus vulgaris) (protein)
chain: MAADTEPKKIIIDTDPGIDDAMAIFVALQSPEIEVIGLTTIYGNVYTTLATRNALHLLEVAGRTDIPVAEGTHLTLTKGTKLRIADFVHGADGLGNQNFPPPKGKPIEESAASFLVRQAKLNPGKVTVVALGPLTNIALAIELDPEFVKNIGQIVILGGAFAVNGNVNPAAEANIFGDPDAADVVFTSGADILALGINVTHQVILTSSDREILASSNGKFAQYLHKILDVYFSYHQESYNTKGVYLHDPTVVLAAVDPSLVTCIEGIVRVQTSGITRGLTLLYNKQKRFGEIHEWSNKPTVKVAVTVDAPRVMKLVMDRLLDS
notes: no N. benthamiana NSH1 detected by MS; locus assigned by print order
[1]
  Km: 210 ± 20 µM
  kcat: 2.91 ± 0.14 s⁻¹
  kcat/Km: 13700 ± 640 M⁻¹ s⁻¹
[2]
  Km: 120 ± 20 µM
  kcat: 13.2 ± 0.26 s⁻¹
  kcat/Km: 116000 ± 15200 M⁻¹ s⁻¹
